The source of these data is US20150274826A1 (ARCH ONCOLOGY, published 2015).

T1: mouse CD47 (mouse, UniProt Q61735 19-303)
T1 construct: whole, on cells; also called CD47 on mouse RBCs; CD47 on 4T1 cells
T1 sequence (looked up): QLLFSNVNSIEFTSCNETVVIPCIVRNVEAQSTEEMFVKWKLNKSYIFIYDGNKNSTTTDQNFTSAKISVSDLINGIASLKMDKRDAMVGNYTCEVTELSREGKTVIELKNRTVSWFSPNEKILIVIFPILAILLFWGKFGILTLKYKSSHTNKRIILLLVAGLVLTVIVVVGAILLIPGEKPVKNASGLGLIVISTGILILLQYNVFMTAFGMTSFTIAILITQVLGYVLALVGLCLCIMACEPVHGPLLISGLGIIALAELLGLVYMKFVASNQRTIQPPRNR

B1: Clone 14.1 (hum14 IgG1 N297Q) (antibody)
heavy: QVQLQESGPGLVKPSQTLSLTCTVSGYTFTNYYVFWVRQARGQRLEWIGDINPVNGDTNFNEKFKNRVTISADKSISTAYLQWSSLKASDTAMYYCARGGYTMDYWGQGTLVTVSSASTKGPSVFPLAPSSKSTSGGTAALGCLVKDYFPEPVTVSWNSGALTSGVHTFPAVLQSSGLYSLSSVVTVPSSSLGTQTYICNVNHKPSNTKVDKKVEPKSCDKTHTCPPCPAPELLGGPSVFLFPPKPKDTLMISRTPEVTCVVVDVSHEDPEVKFNWYVDGVEVHNAKTKPREEQYQSTYRVVSVLTVLHQDWLNGKEYKCKVSNKALPAPIEKTISKAKGQPREPQVYTLPPSR
light: DVVMTQSPLSLPVTLGQPASISCRSSQSLVHSNGNTYLHWYQQKPGKAPKLLIYKVSYRFSGVPDRFSGSGSGTDFTLKISRVEAEDVGVYYCSQNTHVPRTFGQGTKVEIKRTVAAPSVFIFPPSDEQLKSGTASVVCLLNNFYPREAKVQWKVDNALQSGNSQESVTEQDSKDSTYSLSSTLTLSKADYEKHKVYACEVTHQGLSSPVTKSFNRGEC
notes: IgG1 N297Q
B2: Clone 23.1 (hum23 IgG1 N297Q) (antibody)
heavy: QVQLQESGPGLVKPSQTLSLTCTVSGYTFTNYYVFWVRQARGQRLEWIGDINPVNGDTNFNEKFKNRLTISKDTSKNQVVLTMTNMDPVDTATYYCARGGYTMDYWGQGTLVTVSSASTKGPSVFPLAPSSKSTSGGTAALGCLVKDYFPEPVTVSWNSGALTSGVHTFPAVLQSSGLYSLSSVVTVPSSSLGTQTYICNVNHKPSNTKVDKKVEPKSCDKTHTCPPCPAPELLGGPSVFLFPPKPKDTLMISRTPEVTCVVVDVSHEDPEVKFNWYVDGVEVHNAKTKPREEQYQSTYRVVSVLTVLHQDWLNGKEYKCKVSNKALPAPIEKTISKAKGQPREPQVYTLPPSR
light: B1 light with V2I, S7T, L15P, Q17E
notes: IgG1 N297Q
B3: Clone 20.1 (hum20 IgG1 N297Q) (antibody)
heavy: QITLKESGPTLVKPTQTLTLTCTFSGYTFTNYYVFWVRQAPGQGLEWMGDINPVNGDTNFNEKFKNRVTITADKSTSTAYMELSSLRSEDTAVYYCARGGYTMDYWGQGTLVTVSSASTKGPSVFPLAPSSKSTSGGTAALGCLVKDYFPEPVTVSWNSGALTSGVHTFPAVLQSSGLYSLSSVVTVPSSSLGTQTYICNVNHKPSNTKVDKKVEPKSCDKTHTCPPCPAPELLGGPSVFLFPPKPKDTLMISRTPEVTCVVVDVSHEDPEVKFNWYVDGVEVHNAKTKPREEQYQSTYRVVSVLTVLHQDWLNGKEYKCKVSNKALPAPIEKTISKAKGQPREPQVYTLPPSR
light: B1 light with V2I, S7T, L15P, Q17E, Q42L, K47Q, A48S, K50Q
notes: IgG1 N297Q
B4: Clone 5.2 (hum05 IgG4 S228P L235E) (antibody)
heavy: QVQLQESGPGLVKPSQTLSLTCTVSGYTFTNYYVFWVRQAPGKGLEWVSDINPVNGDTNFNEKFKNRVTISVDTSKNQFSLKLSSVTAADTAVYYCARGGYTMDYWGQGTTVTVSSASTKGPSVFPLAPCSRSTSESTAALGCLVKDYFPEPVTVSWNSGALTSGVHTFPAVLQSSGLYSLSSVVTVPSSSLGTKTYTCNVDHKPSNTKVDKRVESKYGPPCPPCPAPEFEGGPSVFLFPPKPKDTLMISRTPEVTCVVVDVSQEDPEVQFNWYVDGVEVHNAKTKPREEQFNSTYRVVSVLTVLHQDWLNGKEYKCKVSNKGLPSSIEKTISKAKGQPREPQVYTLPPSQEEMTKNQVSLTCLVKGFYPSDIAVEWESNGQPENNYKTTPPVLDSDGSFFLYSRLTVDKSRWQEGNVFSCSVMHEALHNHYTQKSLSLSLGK
light: B1 light with V2I, S7T, L15P, Q17E, Q42L, K47Q, A48S, K50Q
notes: IgG4 S228P L235E
B5: Clone 8.1 (hum08 IgG1 N297Q) (antibody)
heavy: QITLKESGPTLVKPTQTLTLTCTFSGYTFTNYYVFWIRQSPSRGLEWLGDINPVNGDTNFNEKFKNRFTISRDNAKNSLYLQMNSLRAEDTAVYYCARGGYTMDYWGQGTLVTVSSASTKGPSVFPLAPSSKSTSGGTAALGCLVKDYFPEPVTVSWNSGALTSGVHTFPAVLQSSGLYSLSSVVTVPSSSLGTQTYICNVNHKPSNTKVDKKVEPKSCDKTHTCPPCPAPELLGGPSVFLFPPKPKDTLMISRTPEVTCVVVDVSHEDPEVKFNWYVDGVEVHNAKTKPREEQYQSTYRVVSVLTVLHQDWLNGKEYKCKVSNKALPAPIEKTISKAKGQPREPQVYTLPPSR
light: B1 light with V2I, S7T, L15P, Q17E
notes: IgG1 N297Q
B6: Clone 1.2 (hum01 IgG4 S228P L235E) (antibody)
heavy: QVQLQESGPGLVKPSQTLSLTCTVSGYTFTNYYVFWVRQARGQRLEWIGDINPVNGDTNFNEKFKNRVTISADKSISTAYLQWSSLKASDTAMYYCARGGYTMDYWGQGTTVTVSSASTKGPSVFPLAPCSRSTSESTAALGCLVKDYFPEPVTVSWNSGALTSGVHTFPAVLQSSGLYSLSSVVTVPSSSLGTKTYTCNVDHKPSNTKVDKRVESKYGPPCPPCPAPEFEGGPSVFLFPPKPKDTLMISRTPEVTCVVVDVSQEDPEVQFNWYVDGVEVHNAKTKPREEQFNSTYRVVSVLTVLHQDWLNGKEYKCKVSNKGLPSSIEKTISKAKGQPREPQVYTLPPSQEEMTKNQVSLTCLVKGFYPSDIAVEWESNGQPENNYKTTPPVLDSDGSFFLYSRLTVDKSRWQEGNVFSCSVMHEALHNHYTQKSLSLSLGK
light: B1 light with V2I, S7T, L15P, Q17E
notes: IgG4 S228P L235E version of Clone 1; also called pVxK7b-037-hum01-HC-IgG4 S228P L235E-Pro
B7: Clone 13.2 (hum 13 IgG4 S228P L235E) (antibody)
heavy: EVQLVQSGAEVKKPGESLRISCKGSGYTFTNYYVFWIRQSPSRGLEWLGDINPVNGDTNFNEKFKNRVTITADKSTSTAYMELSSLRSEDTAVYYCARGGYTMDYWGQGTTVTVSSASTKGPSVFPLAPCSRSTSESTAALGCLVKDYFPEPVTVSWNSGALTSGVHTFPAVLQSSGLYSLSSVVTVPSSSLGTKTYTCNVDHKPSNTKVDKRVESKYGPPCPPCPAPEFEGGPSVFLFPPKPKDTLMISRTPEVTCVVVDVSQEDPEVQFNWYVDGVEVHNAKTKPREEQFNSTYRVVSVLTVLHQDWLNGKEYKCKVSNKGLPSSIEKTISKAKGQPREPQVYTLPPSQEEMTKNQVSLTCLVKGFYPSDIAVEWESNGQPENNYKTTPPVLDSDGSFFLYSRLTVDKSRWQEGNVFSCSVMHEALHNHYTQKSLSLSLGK
light: B1 light with V2I, S7T, L15P, Q17E
notes: IgG4 S228P L235E version of Clone 13
B8: Clone 5.1 (hum05 IgG1 N297Q) (antibody)
heavy: QVQLQESGPGLVKPSQTLSLTCTVSGYTFTNYYVFWVRQAPGKGLEWVSDINPVNGDTNFNEKFKNRVTISVDTSKNQFSLKLSSVTAADTAVYYCARGGYTMDYWGQGTLVTVSSASTKGPSVFPLAPSSKSTSGGTAALGCLVKDYFPEPVTVSWNSGALTSGVHTFPAVLQSSGLYSLSSVVTVPSSSLGTQTYICNVNHKPSNTKVDKKVEPKSCDKTHTCPPCPAPELLGGPSVFLFPPKPKDTLMISRTPEVTCVVVDVSHEDPEVKFNWYVDGVEVHNAKTKPREEQYQSTYRVVSVLTVLHQDWLNGKEYKCKVSNKALPAPIEKTISKAKGQPREPQVYTLPPSR
light: B1 light with V2I, S7T, L15P, Q17E, Q42L, K47Q, A48S, K50Q
notes: IgG1 N297Q
B9: Clone 20.2 (hum20 IgG4 S228P L235E) (antibody)
heavy: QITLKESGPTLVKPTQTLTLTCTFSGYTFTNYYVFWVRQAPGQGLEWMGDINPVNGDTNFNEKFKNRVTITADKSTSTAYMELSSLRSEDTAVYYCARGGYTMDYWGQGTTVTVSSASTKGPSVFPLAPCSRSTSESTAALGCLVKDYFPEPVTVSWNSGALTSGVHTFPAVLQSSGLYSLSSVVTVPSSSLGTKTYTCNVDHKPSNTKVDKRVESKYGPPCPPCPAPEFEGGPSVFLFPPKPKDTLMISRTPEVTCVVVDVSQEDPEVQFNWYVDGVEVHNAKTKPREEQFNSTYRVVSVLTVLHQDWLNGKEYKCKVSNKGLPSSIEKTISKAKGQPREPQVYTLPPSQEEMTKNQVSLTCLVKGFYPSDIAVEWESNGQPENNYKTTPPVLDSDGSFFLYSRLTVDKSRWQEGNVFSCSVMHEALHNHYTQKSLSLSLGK
light: B1 light with V2I, S7T, L15P, Q17E, Q42L, K47Q, A48S, K50Q
notes: IgG4 S228P L235E
B10: Clone 8.2 (hum08 IgG4 S228P L235E) (antibody)
heavy: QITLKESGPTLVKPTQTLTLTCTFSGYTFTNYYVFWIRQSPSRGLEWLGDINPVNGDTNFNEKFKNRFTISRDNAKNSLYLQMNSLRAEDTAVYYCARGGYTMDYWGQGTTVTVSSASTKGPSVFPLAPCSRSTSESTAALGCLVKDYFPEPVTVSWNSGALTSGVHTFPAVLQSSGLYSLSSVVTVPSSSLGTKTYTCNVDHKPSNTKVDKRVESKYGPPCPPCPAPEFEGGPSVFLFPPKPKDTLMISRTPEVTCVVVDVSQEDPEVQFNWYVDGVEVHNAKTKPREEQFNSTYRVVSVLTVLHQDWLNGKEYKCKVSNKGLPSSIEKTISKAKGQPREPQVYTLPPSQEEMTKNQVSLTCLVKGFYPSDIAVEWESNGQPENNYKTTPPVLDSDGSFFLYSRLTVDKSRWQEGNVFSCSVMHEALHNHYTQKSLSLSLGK
light: B1 light with V2I, S7T, L15P, Q17E
notes: IgG4 S228P L235E
B11: Clone 23.2 (hum23 IgG4 S228P L235E) (antibody)
heavy: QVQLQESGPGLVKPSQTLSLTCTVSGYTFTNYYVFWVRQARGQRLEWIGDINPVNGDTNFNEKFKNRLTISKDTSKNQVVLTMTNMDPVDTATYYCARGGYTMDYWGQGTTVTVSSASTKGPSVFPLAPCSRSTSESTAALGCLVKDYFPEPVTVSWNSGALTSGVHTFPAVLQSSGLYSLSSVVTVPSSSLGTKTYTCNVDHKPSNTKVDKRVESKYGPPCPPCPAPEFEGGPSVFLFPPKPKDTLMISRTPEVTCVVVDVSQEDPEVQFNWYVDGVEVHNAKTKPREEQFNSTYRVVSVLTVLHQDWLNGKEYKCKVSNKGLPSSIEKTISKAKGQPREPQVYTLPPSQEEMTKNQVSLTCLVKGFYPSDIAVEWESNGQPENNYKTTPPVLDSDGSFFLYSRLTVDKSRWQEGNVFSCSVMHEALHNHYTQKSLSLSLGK
light: B1 light with V2I, S7T, L15P, Q17E
notes: IgG4 S228P L235E
B12: Clone 3.1 (hum03 IgG1 N297Q) (antibody)
heavy: EVQLVQSGAEVKKPGESLRISCKGSGYTFTNYYVFWVRQARGQRLEWIGDINPVNGDTNFNEKFKNRVTITADKSTSTAYMELSSLRSEDTAVYYCARGGYTMDYWGQGTLVTVSSASTKGPSVFPLAPSSKSTSGGTAALGCLVKDYFPEPVTVSWNSGALTSGVHTFPAVLQSSGLYSLSSVVTVPSSSLGTQTYICNVNHKPSNTKVDKKVEPKSCDKTHTCPPCPAPELLGGPSVFLFPPKPKDTLMISRTPEVTCVVVDVSHEDPEVKFNWYVDGVEVHNAKTKPREEQYQSTYRVVSVLTVLHQDWLNGKEYKCKVSNKALPAPIEKTISKAKGQPREPQVYTLPPSR
light: B1 light
notes: IgG1 N297Q
B13: Clone 3.2 (hum03 IgG4 S228P L235E) (antibody)
heavy: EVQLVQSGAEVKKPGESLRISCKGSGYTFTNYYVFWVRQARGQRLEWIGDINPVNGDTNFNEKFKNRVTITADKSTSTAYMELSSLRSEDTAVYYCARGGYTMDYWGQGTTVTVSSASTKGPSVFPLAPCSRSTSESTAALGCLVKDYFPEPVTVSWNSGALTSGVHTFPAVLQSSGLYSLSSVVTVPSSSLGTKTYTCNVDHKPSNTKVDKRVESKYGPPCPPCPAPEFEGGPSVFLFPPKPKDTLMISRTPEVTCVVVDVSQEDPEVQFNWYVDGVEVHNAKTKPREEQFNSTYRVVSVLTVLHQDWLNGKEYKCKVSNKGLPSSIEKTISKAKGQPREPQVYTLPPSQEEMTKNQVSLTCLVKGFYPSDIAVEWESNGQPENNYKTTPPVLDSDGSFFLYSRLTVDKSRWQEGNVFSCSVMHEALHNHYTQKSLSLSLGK
light: B1 light
notes: IgG4 S228P L235E
B14: Clone 14.2 (hum14 IgG4 S228P L235E) (antibody)
heavy: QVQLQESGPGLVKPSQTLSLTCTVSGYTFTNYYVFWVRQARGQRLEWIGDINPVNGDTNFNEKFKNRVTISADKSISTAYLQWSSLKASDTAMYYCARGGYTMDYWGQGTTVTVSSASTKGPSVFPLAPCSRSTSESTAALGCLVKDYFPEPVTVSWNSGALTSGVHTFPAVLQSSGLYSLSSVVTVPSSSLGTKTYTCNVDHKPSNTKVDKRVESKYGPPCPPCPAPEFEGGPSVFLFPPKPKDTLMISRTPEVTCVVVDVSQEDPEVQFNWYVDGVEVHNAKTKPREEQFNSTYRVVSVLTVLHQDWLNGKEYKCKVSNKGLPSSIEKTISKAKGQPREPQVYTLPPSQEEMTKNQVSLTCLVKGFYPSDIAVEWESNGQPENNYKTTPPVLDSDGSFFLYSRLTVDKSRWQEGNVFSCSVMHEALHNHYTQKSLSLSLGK
light: B1 light
notes: IgG4 S228P L235E
B15: Clone 17.1 (hum17 IgG1 N297Q) (antibody)
heavy: B12 heavy with E16A, S17T, L18V, R19K, G24V, V37I, A40P, R41P, Q43K, R44G
light: AIQLTQSPSSLSASVGDRVTITCRSSQSLVHSNGNTYLHWYQQKPGQAPRLLIYKVSYRFSGVPDRFSGSGSGTDFTLKISRVEAEDVGVYYCSQNTHVPRTFGQGTKVEIKRTVAAPSVFIFPPSDEQLKSGTASVVCLLNNFYPREAKVQWKVDNALQSGNSQESVTEQDSKDSTYSLSSTLTLSKADYEKHKVYACEVTHQGLSSPVTKSFNRGEC
notes: IgG1 N297Q
B16: Clone 17.2 (hum17 IgG4 S228P L235E) (antibody)
heavy: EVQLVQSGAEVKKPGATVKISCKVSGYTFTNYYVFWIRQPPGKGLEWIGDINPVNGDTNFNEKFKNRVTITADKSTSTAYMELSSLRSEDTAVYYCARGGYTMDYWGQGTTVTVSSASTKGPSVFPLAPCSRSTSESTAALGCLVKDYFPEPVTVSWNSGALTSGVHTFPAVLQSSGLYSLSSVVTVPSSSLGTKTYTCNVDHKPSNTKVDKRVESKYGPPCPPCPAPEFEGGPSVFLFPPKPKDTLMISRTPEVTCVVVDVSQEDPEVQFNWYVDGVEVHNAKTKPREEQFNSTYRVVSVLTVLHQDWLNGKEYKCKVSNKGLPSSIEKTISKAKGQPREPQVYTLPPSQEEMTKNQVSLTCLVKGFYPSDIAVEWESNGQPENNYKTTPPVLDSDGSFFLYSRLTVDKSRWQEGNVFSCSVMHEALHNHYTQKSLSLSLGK
light: B15 light
notes: IgG4 S228P L235E

Changes are numbered by the printed parent chain. Names may count otherwise.

T2 sequence (Q08722 19-323): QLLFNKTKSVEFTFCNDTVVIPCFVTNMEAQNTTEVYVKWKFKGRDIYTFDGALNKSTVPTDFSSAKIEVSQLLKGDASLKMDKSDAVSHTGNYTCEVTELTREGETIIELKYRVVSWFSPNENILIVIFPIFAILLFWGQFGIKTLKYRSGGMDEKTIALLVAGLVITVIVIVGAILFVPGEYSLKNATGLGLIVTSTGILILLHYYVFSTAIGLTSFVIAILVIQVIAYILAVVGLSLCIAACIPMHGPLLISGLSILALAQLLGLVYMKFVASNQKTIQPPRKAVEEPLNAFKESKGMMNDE

The first experiment concerns the target T1, mouse CD47. Description: cell-based ELISA on mouse 4T1 cells, apparent Kd. As for the experimental part:
(§1) OV10 cells are grown in IMDM medium containing 10% heat inactivated fetal bovine serum (BioWest; S01520) and 4T1 cells are grown in RMPI medium containing 10% heat inactivated fetal bovine serum (BioWest; S01520). One day before assay, 3×10⁴ cells are plated in 96 well cell bind plates (Corning #3300, VWR #66025-626) so that they are 95-100% confluent at the time of assay. Cells are washed and various concentrations of purified antibodies added in either IMDM or RPMI at 37° C. for 1 hour in […]. Cells are then washed with media and incubated for an additional hour at 37° C. with HRP labeled secondary anti-human antibody (Promega) diluted 1/2500 in media. Cells are washed three times with PBS, and the peroxidase substrate 3,3′,5,5′-tetramethylbenzidine is added (Sigma; Catalog #T4444). Reactions are terminated by the addition of HCl to 0.7N, and absorbance at 450 nm is determined using a Tecan model Infinite M200 plate reader. The apparent binding affinities of these clones to human and mouse cells is determined by non-linear fits (Prism GraphPad software). […] Agglutination of human RBCs is assessed following incubation of human RBCs with various concentrations of humanized blocking only clones. Blood is diluted (1:50) and washed 3 times with PBS/EDTA/BSA. RBCs are added to U-bottomed 96 well plates with equal volumes of the antibodies (75 μl) and incubated for 3 hrs at 37° C. and overnight at 4° C.
A general note: An ELISA detects its analyte on a solid surface through an enzyme-linked reagent.
With B1, the Kd turned out to be 0.0949 nM.
Consider B2, for which the Kd worked out at 0.0922 nM.
For the molecule B3, the Kd was 0.237 nM.
Same read-out and setting: next, B4: 0.172 nM; B5: 0.205 nM; B6: 0.175 nM.
The same measure, in the same setting: then B7, with 0.178 nM.
Take B8: the Kd turned out to be 0.112 nM.
With B9, the Kd amounted to 0.354 nM.
Regarding B10, the Kd is 0.0949 nM.
With B11, the Kd stood at 0.192 nM.
In the case of B12, the Kd came to 0.132 nM.
Regarding B13, the Kd turned out to be 0.202 nM.
Regarding B14, the Kd was 0.102 nM.
As for B15, the Kd is 0.198 nM.
Consider B16, for which the Kd was 0.147 nM.

The next experiment concerns the target T2, human CD47 (human, UniProt Q08722 19-323).
T2 construct: whole, on cells; also called CD47 on human RBCs; CD47 on OV10 cells
In words: cell-based ELISA on human OV10 cells, apparent Kd. The protocol: as §1
For the molecule B1, the Kd is 0.0962 nM.
For B2, the Kd is 0.0996 nM.
Take B3: the Kd came to 0.121 nM.
For B4, the Kd stood at 0.107 nM.
On to B5, for which the Kd worked out at 0.115 nM.
On to B6, for which the Kd was 0.15 nM.
The same measure, in the same setting: then B7, with 0.108 nM; and B8, with 0.125 nM; and B9, with 0.114 nM.
The same measure, in the same setting: then B10, with 0.121 nM; and B11, with 0.195 nM.
Still for that read-out and setting: next, B12: 0.115 nM.
For B13, the Kd worked out at 0.129 nM.
As to B14, the Kd came to 0.0899 nM.
As to B15, the Kd came to 0.0855 nM.
In the case of B16, the Kd is 0.121 nM.
